Assay: yeast display, Sf9 membrane polyspecificity reagent, FACS + sequencing; frameworks hold sequencing errors
Procedure, shortened: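 Nanobodies from a synthetic yeast display library (Saccharomyces cerevisiae BJ5465), induced 36–48 hours with galactose, were stained 1 hour at 4 °C with 10% biotinylated, detergent-solubilized Sf9 membrane reagent, enriched on streptavidin microbeads, then FACS-sorted. Anti-HA (expression) and streptavidin (reagent binding) fluorescence set low and high (top ~1%) gates. Polyreactivity labels come from the gate of origin. Genes were colony-PCR amplified, MiSeq 2 × 250 sequenced and filtered by CDR length.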

Sequence | polyreactivity (PSR sort gate)
QVQLVESGGGLVQAGGSLRLSCAASGTIFRLYTMGWYSQAPGKERELVAAITGSGDSTYYADSVKGRFTISRDNAKNTVYLQMNSLKPEDTAFYYFAAKLSRVKYGYWGQGTQVTVSS | high polyreactivity
QVQLVESGGGLVQAGGSLRLSCAASGSTFNQYTMGWYRQAPGKERELVAAISKSGGSTYYADSVKGRFTISRDNAKNTVYFQMNSLKPEVTAVYYCAADRYYDYRVDYWGQGTQVTVSS | high polyreactivity
QVQLVESGGGLVQAGGSLRLICAASGRIFGRYTMGWYRQAPGKETELVAGITYSGGSTYYADSVKGRFTISRDNAKNTVYLQMNSLKPEDTAVYYCAARWRGSGGFDYWGQGTQVTVSS | high polyreactivity
QVQLVESGGGLVQAGGSLRLSCADSGFIFVPYAMGWYRQAPGKERELVATITGRGDSTYYADSVKWRFTISRDNALNTVYLQMNSLKTEDTSLFYCAVDPIRLWAYDYWGQGTQVTVSS | low polyreactivity
QVQLVESGGGLVQAGGSLRLSCAASGSISFRYAMGWYRQAPGKDRELVAAITSGGGTTYYADSVKGRFTISRDNAKNTVYLQMNSMKPEDTAVYYCAKPRARQAFDYWGQGTQVTVSS | high polyreactivity
QVQLVESGGGLVQAGGSLRLICAASGSTFRYYAMGWYRQAPGKEREFVAAITKGGSRTSYADSVKGRFTISRDNAKNTVYLQMNSLKPEDTAVYYCATAYYGGASQRNYGYWGQGTQVTVSS | high polyreactivity
QFQLVESGGGLVQAGGSLRLSCAASGSTFKSYAMGWYRQAPGKEREFVAVITWSGGRTSYADSVKGRFTISRDNAKNTVYLQMNSLKPEDTAVYYCAAKAASRYRAFTYDYWGQGTQVTVSS | low polyreactivity
QVQLVESGGGLVQAGGSLRLSCAASGRIFYGNAMGWYRQAPGKERELVASITSSGSTKYADSVKGRFTISRDNAKNTVYLQMNSLKPEDTAVYYCAASYTKRYDTYAGYDYWGQGTQVTVSS | low polyreactivity
QVQLVESGGGLVQAGGSLRLSCAASGRTFPFYAMGWYRQAPGKERELVAAISISGGSTYYADSVKGRFTISRDNAKNTVYLLMNSLKPEDTAVYYCATDGLYLSWQYSWEELYYWGQGTQVTVSS | high polyreactivity
QVQLVESGGGLVQAGGSLRLSCAASGSTFGRYAMGWYRQAPGKEREMVAAISQRGGSTYYADSVKGRFTISRDYAKNTVYLQMNSLKPEDTAVYYCAAYYTRIRNHYGYWGQGTQVTVSS | high polyreactivity
QVKLVESGGALVQAGGSLRLSCAASGRNFSSYAMGRYRQAPGKERYLVARISSSGGGTSYADSVKGRFTISRDNAKNTVYLQMNSLKPEDTAVYYCAAEDQYYRYFFSYEYWGQGTQVTVSS | high polyreactivity
QVQLVESGGCLVQAGGSLRLSCAASGRTFYFYTMGWYRQAPGKERQLVATIRWSAGSTYYADSVKGRFTISRDNAKNTVYLQMNSLKPEDTAVYYCNADPYVYSSWQYGYWGQGTQVTVSS | high polyreactivity
QVQLVESGGGLVQEGGSLRLSCAASGFIVNRYAMGWYRQAPGKERELVAAITGSGSRTYYADSVKGRFTISRDNAKNTVYLHMNSLKPEATAVYYCNTDRRPTADFGYWGQGTQVTVAS | high polyreactivity
QVQLVESGVRLVQAVGSHRLSCAASASIIDGNSMGWYRQAPGKERELGAVISSRGTRTYYADSVKGRFTISRDNAKKTVYLQMNILKPEDTAVYYCNTRTSDLNGSGDYWGLGTQVTVSS | high polyreactivity
QVQLVESGGGLVQAGGSLRLSCAASGFIFYYNAMGWYRQAPGKERELVAAISASGDRTYYADSVKGRFTISRDNAKNTVYLQMNSLKPEDTAVYYCAARSQGARYSSRRRFGDYWGQGTQVTVSS | high polyreactivity
QVQLVESGGGLVQAGGSLRLSCAASGFTFWYYTMGWYRQAPGKERELVAAITRSGGRTYYADSVKGRFTISRDNAKNTVYLQMNSLKPEDTAVYDCAAVGNLYYTSHWQYDYWGQGTQVTVSS | high polyreactivity
QVQLVESGGGLVQAGGSLRLSCAASGSIFVIYSMGWYRQAPGKERELVARITKSGGSTYYADSVKGRFTISRDNAKITVYLQMNSLKPEDTAVYYCNVGYGGSSDGGYDYWGQGTQVTVSS | high polyreactivity
KVNIEESGGGLVQAGGSLRLSCAAYGSIFRYYAMGRYRQATGKERELVASISSSGGSTYYADSEKGRFTISRDNAKNTVYLQMNSLKPEDTAVYYCAAVRHRNYGYWGQGTQVTVSS | high polyreactivity
QVQLVESGGGLVQAGGSLRLSCAASGRIFAYNAMGWYRQAPGKERELVAAITRSGGSTYYADSVKGRFTISRDNAKNTVYLQMNSLKPEDTAVYYCAKRYSYYIDDYWGQGTQVTVSS | low polyreactivity
QVQLVESGGGLVQAGGSLRLSCAASGYIFFRNAMGWYRQAPGKEREFVAAIRFSGGNTYYADSVKGRFTISRDNAKNTVYLQMNSLKPEDTAFYYCAADKVRQGHYWTPMEYWGQGTQVTVSS | low polyreactivity
QVQLQESSGGLVQAGVCLQQSCAASGSIFTQHPMGRYRQAPANEREFVAAINVGSNTYYADSVKGRITISRDNAKNTVSLQMNILTPEDTAVSYCAATSIRWSVGYFRRDYWGQGTQVTVSS | low polyreactivity
QVQLVESGGGLVQAGGSLRLSCAASGTLSSYAMGWYRQAPGKERELVAAISLSGGSTYYADSVKGRFTISRDNAKNTVYLQMNSLKPEDTAVYYCAKRPKRTYYPHIGYDYWGQGTQVTVSS | low polyreactivity

Sequence | polyreactivity (PSR sort gate)
QVQLVESGGGLVQAGGSLRLSCAASGSIFPSYAMGWYRPAPGTERELVAAISVSGGRTSYADSVKGRFTISRDNAKNTVYLQMNSLKPEDTAVYYCAVRSWSGYGLYNYWAQGTQVTVSS | high polyreactivity
QVQLVESGGGLVQAGGSLRLSCAASGIIFRNYAMGWYRQAPGKERELVAAISRNGGSTYYADSVKGRFTISRDNAKNTVYLQMNSLKPEDTAVYYCAARASYPNWTYYYWGKGTQVTVSS | high polyreactivity
QVQLVESGGGLVQAGGSLRLSCAASGRIFTRNAMGWYRQAPGKERELVATISAGGGRTSYADSVKGRFTISRDNAKNTVYLQMNSLKPEDTAVYYCAARGQVGYYWGQGTQVTVSS | high polyreactivity
QVQLVESGGGLVQAGGSLRLSCAASGSTFAGNAMGWYRQAPGKERELVAAIDSSTGSTYYADSVKGRFTISRDNAKNTVYLQMNSLKPEDTAVYYCAAGYYWQYTSSSAQYAYDYWGQGTQVTVSS | low polyreactivity
QVQLVESGGGLVQAGGSLRLSCAASGRIFYYYAMGWYRQAPGKERELVAAITRGDSTTYADSVKGRFTISRDNAKNTVYLKMNILKPEDTAVYYCNAGRGTFKRYTALQYWGQGTQVTVSS | low polyreactivity
QVQLVESGGGLVQAGGSLRLSCAASRSTFYIYVMGWYRQAPGKERELVAAISWSGGSTYYTDSVKGRFTISRDNAKNTVYLQMNSLNPEDTAVYYCNADAHWSVWSYIIDYDYWGEGTQVTVSS | low polyreactivity
QVQLEESGGGLVQAGGSLRLSCAASGINFSVYGMGGYRQATGKERELVASITKSGGTTYYADSVKGRFTISRDNAKNTVYLQMNSLKPEDTAVYYCAAAWSDKRVLSVYYAYYWGQGTQVTVSS | high polyreactivity
QVQLVESGGGLVQAGGSLRLSCAASGSISVYNAMGWYRQAPGKERELVAAISWSGGRTSYADSVKGRFTISRDNAKNTVYLQMNSLKPEDTAVYYCAADELTVLWDEDYWGQGTQVTVSS | low polyreactivity
QVQLVESGGGLVQAGGSLRLSCAASGITFYDNAMGWYRPAPGKEWELVAGISYDGDSTYADSVKGRFTISRDNAKNTVYLQINSLKPEDTAVYYCAALGPYDWLWAGDYWGQGTQVTVSS | low polyreactivity
QVQLVESGGGLVQAGGSLRLSCAASGSIFYYYAMGWYRQAPGKERELVAAISKSGGSTYADSVKGRFTISRDNAKNTVYLQMNSLKPEDTAVYYCAATYYYSWYAFNYWGQGTQVTVSS | low polyreactivity
QVQLVESGGGLVQAGGSLRLSCAASGFIFSKYGMGWYRQAPGKERELVAAISIRGGNTYYADSVKGRFTISRDNAKNTVYLQMNSLKPEDTAVYYCNALSYGRYLNYRGGMDYWGQGTQVTVSS | high polyreactivity
QVQLVESGGGLVQAGGSLRLSCAASGRIFRRYVMVWSRQAPGKERELVARIRIRDSNTYYADSVKGRFTISRDNAKNTVYLQMNSLKPEDTAVYYCAVVANYVYSKYDYWGQGTLVTVSS | high polyreactivity
QVQLVESGGGLVQAGGSLRLSCAASGRTFARYAMGWYRQAPGKEREFVAGINWSGGGTYYADSVKGRFTISRDNAKNTVYLQMNSLKPEDTAVYYCASYTSVRPKLDYWGLGTQVTVSS | high polyreactivity
QVQLVESGGGLVQAGGSLRLSSAASGSNFPPNAMGWYRQAPGKEREFVASITSSGGITNYADSVKGRFTISRDNAKNTVYLQMNSLKPEDTAVYYCAAKYYGGTRFRPYGYWGQGTQVTVSS | high polyreactivity
QVQLVESGGGLVQAGGSLRLSCAASGFIFTDNVMGWYRQAPGKERELVAAISRGGGSTYYADSVKGRFTISRDNAKNTDYLQMNSLKPEDTAVYYCAAPTARSRSERDYWGQGTQVTVSS | high polyreactivity
QVQLVESGGGLVQAGGSLRLSCAAYGRTIPIYAMGWYRQAPGKEREFVAGINWSGGSTSYADSVKGRFTISRDNAKNTVYLQMNSLKPEDTAVYYCDADKYYRYNYWGQGTQVTVSS | high polyreactivity
QVQLVESGGGLVQAGGSLRLSCAASGSIFEVNAMGWYRQAPGKERELVAGISNADSTNYADSVKGRFTISRDNAKNTVYLQMNSLKPEDTAVYYCATDLYRDHPKDLLGPEYDYWGQGTQVTVSS | low polyreactivity
QVQLVESGGGLVQAGGSLRLSCAASGRIFPDNTLGWYRQAPGKERELVAVITYSGGSTYYADSVKGRFTISRDNAKNTVYLQMNSLKPEDTAVYYCAARDYYIWFAEVDSWGQGTQVTVSS | low polyreactivity
QVQLVDSVGGLVQAGGSLRLSCAASGSIFNPYDMGWSRQAPGKERELVAAIDWSGGSTYYADSVKGRFTISRDNAKNTVYLQMNSLKPEDTAVYYCNARPDYSISLPGYPTLSEDDEYWGQGTQVTVSS | low polyreactivity
QVQLVESGGGLVQAGGSLRLSCAASGSIFPGYAMGWSRPAPGKERELVAAISRDGSTNYADSVKGRFTISRDNAKITVYLQMNSLKPEDTAVYYCARRNPLGGNEHDYWGQGTQVTVSS | low polyreactivity
QVQLVESGGGLVQAGGSHRLSCAAYGRIFYYYVMGWYRQAPGKERELVAVIDWSGGSTYYADSVKGRFTISRDNAKYTVYVQMNCLKPDDTAVYYCAKVWLNFSLAYEDYDYWGQGTQVNVSS | low polyreactivity

Reference: the nanobody polyreactivity screen of Harvey et al. (2022)
